Values quoted from earlier work as cited in publication PMC3267162.
Read-outs that look alike come from different tables or passages of the source.

Experiments:
LRP (Homo sapiens) = LRP (Homo sapiens) (UniProt Q07954)
PTPzeta (Homo sapiens) [1] = molecular target: PTPzeta (Homo sapiens) (UniProt P23471)
PTPzeta (Homo sapiens) [2] = molecular target: PTPzeta (Homo sapiens) (UniProt P23471); remark: listed apart in the source

Sequence of UniProt P23471 (P23471 25-1636): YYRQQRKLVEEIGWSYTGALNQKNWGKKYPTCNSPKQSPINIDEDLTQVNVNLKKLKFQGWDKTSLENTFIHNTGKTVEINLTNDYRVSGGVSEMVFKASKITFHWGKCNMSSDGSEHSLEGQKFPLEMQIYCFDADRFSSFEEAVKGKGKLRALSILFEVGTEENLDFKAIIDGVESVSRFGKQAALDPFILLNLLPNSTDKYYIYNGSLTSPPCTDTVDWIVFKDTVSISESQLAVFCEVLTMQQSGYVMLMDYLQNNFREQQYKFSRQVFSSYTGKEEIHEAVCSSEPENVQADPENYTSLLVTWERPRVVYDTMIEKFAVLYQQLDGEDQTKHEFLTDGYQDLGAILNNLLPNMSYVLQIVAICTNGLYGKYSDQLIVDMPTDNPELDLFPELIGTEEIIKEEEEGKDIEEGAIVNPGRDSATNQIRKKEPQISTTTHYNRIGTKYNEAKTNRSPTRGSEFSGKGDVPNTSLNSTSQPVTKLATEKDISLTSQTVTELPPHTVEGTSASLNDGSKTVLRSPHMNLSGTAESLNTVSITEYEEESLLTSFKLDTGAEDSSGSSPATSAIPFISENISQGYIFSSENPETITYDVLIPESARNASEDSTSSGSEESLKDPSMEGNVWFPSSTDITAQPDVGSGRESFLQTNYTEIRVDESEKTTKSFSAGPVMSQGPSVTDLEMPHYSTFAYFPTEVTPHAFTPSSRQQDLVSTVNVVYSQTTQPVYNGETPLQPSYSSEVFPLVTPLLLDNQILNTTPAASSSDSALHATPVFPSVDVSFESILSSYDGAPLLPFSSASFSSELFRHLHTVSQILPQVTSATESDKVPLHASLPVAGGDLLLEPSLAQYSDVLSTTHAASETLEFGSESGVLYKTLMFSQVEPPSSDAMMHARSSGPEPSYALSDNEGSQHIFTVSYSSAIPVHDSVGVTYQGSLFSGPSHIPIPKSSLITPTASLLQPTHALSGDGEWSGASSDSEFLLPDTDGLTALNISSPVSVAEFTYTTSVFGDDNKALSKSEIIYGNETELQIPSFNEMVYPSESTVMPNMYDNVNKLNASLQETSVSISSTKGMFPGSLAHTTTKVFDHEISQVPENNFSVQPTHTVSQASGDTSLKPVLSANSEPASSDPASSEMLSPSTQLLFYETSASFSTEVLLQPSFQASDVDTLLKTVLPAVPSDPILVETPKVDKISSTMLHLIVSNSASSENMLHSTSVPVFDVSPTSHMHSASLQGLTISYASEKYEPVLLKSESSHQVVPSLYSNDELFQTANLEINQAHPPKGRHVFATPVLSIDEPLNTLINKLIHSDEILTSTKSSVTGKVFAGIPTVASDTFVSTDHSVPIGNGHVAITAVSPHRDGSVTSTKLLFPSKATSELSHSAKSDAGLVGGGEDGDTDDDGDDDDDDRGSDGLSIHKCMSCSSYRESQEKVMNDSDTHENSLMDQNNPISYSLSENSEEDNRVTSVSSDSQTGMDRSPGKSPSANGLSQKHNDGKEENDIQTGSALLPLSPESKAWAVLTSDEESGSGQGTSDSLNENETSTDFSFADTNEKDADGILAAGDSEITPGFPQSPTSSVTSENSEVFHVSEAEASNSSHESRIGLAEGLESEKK

Midkine (from UniProt P21741)
Kd (LRP (Homo sapiens)): 3.5 nM | Kd (PTPzeta (Homo sapiens) [1]): 8.8 nM | Kd (PTPzeta (Homo sapiens) [2]): 0.58 nM
